Measured values from PMC2739586 (Journal of molecular biology, 2009).

Molecular target: the molecule itself
Assay: crystal structure

B1: Miner1 (C92S), soluble region of human Miner1 (amino acids 57-135) (domain or fragment)
chain: GSHMRPFLPKKKQQKDSLINLKIQKENPKVVNEINIEDLSLTKAAYCRCWRSKTFPACDGSHNKHNELTGDNVGPLILKKKEV
**Q.** For B1, which “stoichiometry N” value is on record?
**A.** 2
